Experimental data reported in article doi:10.1101/2023.02.16.528878 (bioRxiv, 2023).

B1: recombinant UFC1 (enzyme)
chain: MADEATRRVVSEIPVLKTNAGPRDRELWVQRLKEEYQSLIRYVENNKNADNDWFRLESNKEGTRWFGKCWYIHDLLKYEFDIEFDIPITYPTTAPEIAVPELDGKTAKMYRGGKICLTDHFKPLWARNVPKFGLAHLMALGLGPWLAVEIPDLIQKGVIQHKEKCNQ

Experiments:
recombinant UFC1 = target: B1; test: ITC
GST-CDK5RAP3 = target: T1, GST-CDK5RAP3 (human, UniProt Q96JB5 1-506); test: pull-down
T1 sequence: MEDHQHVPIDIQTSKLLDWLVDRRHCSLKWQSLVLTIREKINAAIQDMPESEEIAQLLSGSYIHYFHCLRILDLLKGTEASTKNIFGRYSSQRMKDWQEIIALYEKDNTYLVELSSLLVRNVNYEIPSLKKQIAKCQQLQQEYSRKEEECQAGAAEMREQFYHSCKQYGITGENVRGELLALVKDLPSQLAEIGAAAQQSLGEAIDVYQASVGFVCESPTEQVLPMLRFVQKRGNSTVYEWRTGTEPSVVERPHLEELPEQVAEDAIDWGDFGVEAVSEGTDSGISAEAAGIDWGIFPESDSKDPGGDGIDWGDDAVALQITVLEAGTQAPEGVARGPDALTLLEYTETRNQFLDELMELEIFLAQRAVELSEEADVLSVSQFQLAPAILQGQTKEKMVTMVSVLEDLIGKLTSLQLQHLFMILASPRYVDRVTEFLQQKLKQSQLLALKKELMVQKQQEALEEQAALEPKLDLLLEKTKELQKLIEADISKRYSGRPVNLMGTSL

| Binder | Kd (recombinant UFC1) | binding result (GST-CDK5RAP3) |
| --- | --- | --- |
| MADAWEEIRRLAADFQRAQFA [UFL1^UBS peptide, UFL1(1-21)] | 410 nM |  |
| B1 |  | binds |
